Assays:
HLA-A*69:01 = assay: IEDB peptide-MHC binding, purified MHC/direct/fluorescence; filed as Kd, often an IC50 or EC50 that approximates it; ≥ and ≤ were set here for values at or beyond the usual limits of such assays
HLA-A*02:03 = assay: IEDB peptide-MHC binding, purified MHC/competitive/radioactivity; filed as Kd, often an IC50 or EC50 that approximates it; ≥ and ≤ were set here for values at or beyond the usual limits of such assays; details: source organism: Dengue virus 1 Singapore/S275/1990
HLA-A*32:01 = assay: as above
HLA-A*30:01 = assay: as above
HLA-A*02:01 [1] = assay: IEDB peptide-MHC binding, purified MHC/competitive/fluorescence; filed as Kd, often an IC50 or EC50 that approximates it; ≥ and ≤ were set here for values at or beyond the usual limits of such assays
HLA-B*51:01 = assay: IEDB peptide-MHC binding, purified MHC/competitive/radioactivity; filed as Kd, often an IC50 or EC50 that approximates it; ≥ and ≤ were set here for values at or beyond the usual limits of such assays
HLA-A*24:02 = assay: as above; details: source organism: Dengue virus 4 Philippines/H241/1956
HLA-A*02:01 [2] = assay: IEDB peptide-MHC binding, purified MHC/competitive/fluorescence; ≥ and ≤ were set here for values at or beyond the usual limits of such assays
HLA-B*58:01 = assay: IEDB peptide-MHC binding, purified MHC/direct/fluorescence; filed as Kd, often an IC50 or EC50 that approximates it; ≥ and ≤ were set here for values at or beyond the usual limits of such assays
HLA-A*30:02 = assay: IEDB peptide-MHC binding, purified MHC/competitive/radioactivity; filed as Kd, often an IC50 or EC50 that approximates it; ≥ and ≤ were set here for values at or beyond the usual limits of such assays
HLA-A*01:01 [3] = assay: IEDB peptide-MHC binding, purified MHC/direct/fluorescence; filed as Kd, often an IC50 or EC50 that approximates it; ≥ and ≤ were set here for values at or beyond the usual limits of such assays
HLA-A*03:01 = assay: as above
HLA-A*11:01 = assay: as above
HLA-A*01:01 [4] = assay: IEDB peptide-MHC binding, purified MHC/competitive/radioactivity; filed as Kd, often an IC50 or EC50 that approximates it; ≥ and ≤ were set here for values at or beyond the usual limits of such assays
HLA-B*40:01 = assay: IEDB peptide-MHC binding, purified MHC/direct/fluorescence; filed as Kd, often an IC50 or EC50 that approximates it; ≥ and ≤ were set here for values at or beyond the usual limits of such assays; details: source organism: Mycobacterium tuberculosis variant bovis
HLA-B*07:02 = assay: as above; details: source organism: Mus musculus
HLA-B*27:05 = assay: as above
HLA-A*31:01 = assay: as above; details: source organism: SARS-CoV1
HLA-A*33:01 = assay: IEDB peptide-MHC binding, purified MHC/competitive/radioactivity; filed as Kd, often an IC50 or EC50 that approximates it; ≥ and ≤ were set here for values at or beyond the usual limits of such assays; details: source organism: SARS coronavirus Tor2
HLA-A*68:01 = assay: as above
HLA-A*02:01 [5] = assay: IEDB peptide-MHC binding, purified MHC/direct/fluorescence; filed as Kd, often an IC50 or EC50 that approximates it; ≥ and ≤ were set here for values at or beyond the usual limits of such assays
HLA-A*26:01 = assay: IEDB peptide-MHC binding, purified MHC/competitive/radioactivity; filed as Kd, often an IC50 or EC50 that approximates it; ≥ and ≤ were set here for values at or beyond the usual limits of such assays; details: source organism: Dengue virus 2 16681-PDK53
HLA-B*15:01 = assay: IEDB peptide-MHC binding, purified MHC/direct/fluorescence; filed as Kd, often an IC50 or EC50 that approximates it; ≥ and ≤ were set here for values at or beyond the usual limits of such assays; details: source organism: Haemophilus influenzae
[6] = source organism: Vaccinia virus WR
[7] = source organism: Dengue virus 3 Martinique/1243/1999
[8] = source organism: Dengue virus 2 Jamaica/1409/1983
[9] = source organism: Dengue virus 1 Brazil/97-11/1997
[10] = source organism: Zaire ebolavirus
[11] = source organism: Human immunodeficiency virus type 1 (isolate YU2)
[12] = source organism: Lassa virus Josiah
[13] = source organism: Vaccinia virus
[14] = source organism: Vibrio vulnificus
[15] = source organism: Haemophilus influenzae

PLNEGIMAV was tested. Which Kd (HLA-A*69:01; source organism: dengue virus type 1) did it give?
The Kd was ≥ 5000 nM.

And the Kd (HLA-A*02:03)?
Its Kd is 118 nM.

Which Kd (HLA-A*32:01; source organism: Dengue virus 2 Peru/IQT2913/1996) does the source give for ATYEPDVDL here?
Its Kd is 7390 nM.

For KTSCSKNEA, which Kd (HLA-A*30:01; [6]) is on record?
The Kd was 72.2 nM.

With GLCTLVAM as the sequence, how does the Kd (HLA-A*02:01 [1]; source organism: Human herpesvirus 4 strain B95-8) read?
Its Kd is 2370 nM.

Which Kd (HLA-B*51:01; [7]) does the source give for FNYCEGTTVV here?
The Kd was 1220 nM.

Which Kd (HLA-A*02:01 [1]; [6]) does the source give for KIEIERKKL here?
Its Kd is 422 nM.

LYAVATTIL was tested. Which Kd (HLA-A*24:02) did it give?
Its Kd is 79.5 nM.

For KLKPRWLDA, which Kd (HLA-A*30:01; [8]) is on record?
The Kd was 21 nM.

For LAIPPTAGI, which Kd (HLA-B*51:01; [9]) is on record?
Its Kd is 393 nM.

TLFIGSHVV was tested. Which Kd (HLA-A*02:01 [1]; source organism: human gammaherpesvirus 4) did it give?
Its Kd is 1.4 nM.

For HINALEYII, which Kd (HLA-A*32:01; [6]) is on record?
The Kd was 631 nM.

For GVKRLEELL, which IC50 (HLA-A*02:01 [2]; [10]) is on record?
Its IC50 is 49200 nM.

Which Kd (HLA-B*58:01; source organism: Influenza A virus (A/New York/124/2001(H3N2))) does the source give for SSSTEVETY here?
The Kd was 495 nM.

For RGTTFAEGV, which IC50 (HLA-A*02:01 [2]; [10]) is on record?
Its IC50 is 9300 nM.

How did the Kd (HLA-A*32:01; [6]) turn out when KMSILGVSI was run?
Its Kd is 2.36 nM.

With TTKATTQIA as the sequence, how does the Kd (HLA-A*30:01; [6]) read?
Its Kd is 6.52 nM.

Which Kd (HLA-A*30:02; [7]) does the source give for HWFSRENSY here?
The Kd was 246 nM.

How did the Kd (HLA-A*01:01 [3]; source organism: Camelpox virus M-96) turn out when MYKLNKPTK was run?
The Kd was ≥ 20000 nM.

For RIKQIINMW, which Kd (HLA-A*01:01 [3]; [11]) is on record?
Its Kd is 5560 nM.

And the Kd (HLA-A*03:01; [11])?
The Kd was 3660 nM.

What about the Kd (HLA-B*58:01; [11]) of the same sequence?
Its Kd is 884 nM.

RFSTSLLFL was tested. Which Kd (HLA-A*24:02) did it give?
The Kd was 77.1 nM.

KSWGKAKII was tested. Which Kd (HLA-A*32:01; [9]) did it give?
Its Kd is 47.4 nM.

AEALKGMPIR was tested. Which Kd (HLA-A*30:01; [9]) did it give?
Its Kd is 1260 nM.

How did the IC50 (HLA-A*02:01 [2]; source organism: Hepatitis C virus genotype 1) turn out when MLVCGDDLV was run?
The IC50 was 5000 nM.

How did the Kd (HLA-A*30:01; [6]) turn out when KVKSYNYML was run?
Its Kd is 0.175 nM.

KTISMLIEV was tested. Which Kd (HLA-A*30:01; [6]) did it give?
Its Kd is 580 nM.

ELNYVLWEGG was tested. Which Kd (HLA-A*32:01; source organism: Dengue virus 4 Philippines/H241/1956) did it give?
Its Kd is 9340 nM.

How did the IC50 (HLA-A*02:01 [2]; [10]) turn out when PQLSAIALG was run?
Its IC50 is ≥ 423000 nM.

For LQRGRLPLV, which Kd (HLA-A*30:01; [6]) is on record?
Its Kd is 93.3 nM.

With SVRLLNYFK as the sequence, how does the Kd (HLA-A*30:01; [6]) read?
The Kd was 0.238 nM.

With TTTLEETKF as the sequence, how does the Kd (HLA-A*11:01; source organism: SARS-CoV1) read?
Its Kd is ≥ 109000 nM.

What about the Kd (HLA-B*58:01; source organism: SARS-CoV1) of the same sequence?
The Kd was 11700 nM.

LVSKFMSNG was tested. Which IC50 (HLA-A*02:01 [2]; [6]) did it give?
Its IC50 is ≥ 201000 nM.

ILTLANWCL was tested. Which Kd (HLA-A*02:01 [1]; source organism: Escherichia coli O139:H28 str. E24377A) did it give?
The Kd was 0.2 nM.

With WAFWETKKN as the sequence, how does the IC50 (HLA-A*02:01 [2]; [10]) read?
The IC50 was ≥ 212000 nM.

How did the Kd (HLA-A*01:01 [4]; [9]) turn out when YSDPLALRE was run?
Its Kd is 262 nM.

Which results are given for VSNRCPICK?
Kd (HLA-A*03:01; [12]): 882 nM; Kd (HLA-A*11:01; [12]): 47.2 nM

For FEGIAVLGL, which Kd (HLA-B*40:01) is on record?
The Kd was 67.6 nM.

How did the Kd (HLA-A*32:01; [6]) turn out when LMDMITLSL was run?
Its Kd is 29.7 nM.

QLLLQKYPP was tested. Which IC50 (HLA-A*02:01 [2]; [13]) did it give?
The IC50 was ≥ 93600 nM.

RAWDPQPAM was tested. Which Kd (HLA-B*07:02) did it give?
The Kd was 36.4 nM.

For RRLVKVLNN, which Kd (HLA-B*27:05; source organism: Mycobacterium avium 104) is on record?
Its Kd is 4370 nM.

Which Kd (HLA-A*30:01; [7]) does the source give for LWRTLGRNK here?
The Kd was 478 nM.

Which Kd (HLA-A*30:01; [6]) does the source give for RYRFAFLYL here?
Its Kd is 0.169 nM.

With ATFSVPMEK as the sequence, how does the Kd (HLA-A*31:01) read?
The Kd was 141 nM.

What about the Kd (HLA-B*27:05; source organism: SARS-CoV1) of the same sequence?
The Kd was 19000 nM.

What about the Kd (HLA-A*33:01) of the same sequence?
Its Kd is 14500 nM.

And the Kd (HLA-A*68:01; source organism: SARS coronavirus Tor2)?
The Kd was 0.161 nM.

With FLWVIILFQ as the sequence, how does the IC50 (HLA-A*02:01 [2]; [10]) read?
The IC50 was 12700 nM.

ISEKLRSGY was tested. Which Kd (HLA-A*01:01 [3]; source organism: Influenza A virus (A/Kinmen/645/04(H3N2))) did it give?
The Kd was 467 nM.

KAKGSRAIWY was tested. Which Kd (HLA-A*30:02; [8]) did it give?
The Kd was 6.68 nM.

For KIDTTHVSKV, which Kd (HLA-A*02:01 [1]; source organism: Vaccinia virus Tian Tan) is on record?
Its Kd is 206 nM.

How did the IC50 (HLA-A*02:01 [2]; [13]) turn out when KIKDVSYND was run?
The IC50 was ≥ 571000 nM.

Which IC50 (HLA-A*02:01 [2]; [10]) does the source give for GAVKYLEGH here?
Its IC50 is ≥ 521000 nM.

How did the Kd (HLA-A*02:01 [1]; source organism: Entamoeba histolytica) turn out when DLKPENILL was run?
The Kd was ≥ 20000 nM.

Which Kd (HLA-A*32:01; [6]) does the source give for RTYGLRNSL here?
Its Kd is 0.626 nM.

Which Kd (HLA-A*02:01 [5]; [14]) does the source give for VQLLGRRFV here?
The Kd was ≥ 20000 nM.

What about the Kd (HLA-A*69:01; [14]) of the same sequence?
The Kd was ≥ 20000 nM.

VLTLATGPIL was tested. Which Kd (HLA-A*30:01; source organism: Dengue virus 4 Dominica/814669/1981) did it give?
The Kd was 1330 nM.

How did the Kd (HLA-A*30:02; [8]) turn out when KNENDQYIY was run?
Its Kd is 0.15 nM.

With SVIEKMEAL as the sequence, how does the Kd (HLA-A*26:01) read?
The Kd was 51 nM.

Which results are given for DVFYLPPEK?
Kd (HLA-A*30:01; [7]): 1370 nM; Kd (HLA-A*68:01; [7]): 5.57 nM

With RTIFNFHLI as the sequence, how does the Kd (HLA-A*32:01; [6]) read?
Its Kd is 2.09 nM.

How did the Kd (HLA-A*01:01 [4]; [7]) turn out when VSETQHGTIL was run?
The Kd was ≥ 70400 nM.

Which IC50 (HLA-A*02:01 [2]; source organism: Human alphaherpesvirus 1 strain 17) does the source give for LMHAPAFET here?
The IC50 was 2000 nM.

For AKLTEAITA, which IC50 (HLA-A*02:01 [2]; [10]) is on record?
The IC50 was 28600 nM.

Which Kd (HLA-A*30:01; [6]) does the source give for RYRQRLISL here?
The Kd was 5.17 nM.

Which Kd (HLA-A*32:01; [6]) does the source give for HLMFYTLPI here?
Its Kd is 0.177 nM.

Which results are given for AMVPLVMVI?
Kd (HLA-A*02:01 [5]; [15]): 435 nM; Kd (HLA-A*69:01; [15]): 3430 nM; Kd (HLA-B*15:01): 834 nM
